# Source: patent US20260295010 (published 2026)
# Changes are numbered by the printed parent chain. In names and notes the source's numbering stands.
# T1: IL-12RB2-hFc (human, UniProt Q99665)
# T1 chain: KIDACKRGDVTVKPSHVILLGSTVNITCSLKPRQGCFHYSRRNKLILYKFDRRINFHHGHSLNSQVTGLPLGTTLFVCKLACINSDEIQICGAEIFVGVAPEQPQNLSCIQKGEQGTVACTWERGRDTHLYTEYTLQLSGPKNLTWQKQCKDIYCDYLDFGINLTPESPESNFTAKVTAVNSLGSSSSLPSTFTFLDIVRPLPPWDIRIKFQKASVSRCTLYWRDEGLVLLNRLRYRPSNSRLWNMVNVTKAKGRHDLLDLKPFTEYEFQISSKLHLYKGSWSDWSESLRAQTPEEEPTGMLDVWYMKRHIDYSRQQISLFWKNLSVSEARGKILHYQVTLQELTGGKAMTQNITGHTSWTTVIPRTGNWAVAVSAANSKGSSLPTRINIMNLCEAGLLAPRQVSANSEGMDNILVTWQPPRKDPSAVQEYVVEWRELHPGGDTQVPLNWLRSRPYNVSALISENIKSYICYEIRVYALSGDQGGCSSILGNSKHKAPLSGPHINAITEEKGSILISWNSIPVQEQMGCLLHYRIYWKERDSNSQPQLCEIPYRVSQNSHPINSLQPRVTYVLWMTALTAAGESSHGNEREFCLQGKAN
# B1: IL-12p70 I90A (protein)
# chain 1: MIWELKKDVYVVELDWYPDAPGEMVVLTCDTPEEDGITWTLDQSSEVLGSGKTLTIQVKEFGDAGQYTCHKGGEVLSHSLLLLHKKEDGAWSTDILKDQKEPKNKTFLRCEAKNYSGRFTCWWLTTISTDLTFSVKSSRGSSDPQGVTCGAATLSAERVRGDNKEYEYSVECQEDSACPAAEESLPIEVMVDAVHKLKYENYTSSFFIRDIIKPDPPKNLQLKPLKNSRQVEVSWEYPDTWSTPHSYFSLTFSVQVQGKSKREKKDRVFTDKTSATVICRKNASISVRAQDRYYSSSWSEWASVPCSGGGSHHHHHH
# chain 2: MRNLPVATPDPGMFPSLHHSQNLLRAVSNMLQKARQTLEFYPCTSEEIDHEDITKDKTSTVEACLPLELTKNESCLNSRETSFITNGSSLASRKTSFMMALCLSSIYEDLKMYQVEFKTMNAKLLMDPKRQIFLDQNMLAVIDELMQALNFNSETVPQKSSLEEPDFYKTKIKLCILLHAFRIRAVTIDRVMSYLNAS
# B2: IL-12p70 S45A (protein)
# chain 1: B1 chain 1 with S45A, A90I
# chain 2: B1 chain 2
# B3: IL-12p70 D162K (protein)
# chain 1: B1 chain 1 with A90I, D162K
# chain 2: B1 chain 2
# B4: IL-12p70 D94A (protein)
# chain 1: B1 chain 1 with A90I, D94A
# chain 2: B1 chain 2
# B5: IL-12p70 D42K (protein)
# chain 1: B1 chain 1 with D42K, A90I
# chain 2: B1 chain 2
# B6: IL-12p70 S44A (protein)
# chain 1: B1 chain 1 with S44A, A90I
# chain 2: B1 chain 2
# B7: IL-12p70 P21A (protein)
# chain 1: B1 chain 1 with P21A, A90I
# chain 2: B1 chain 2
# B8: IL-12p70 T203A (protein)
# chain 1: B1 chain 1 with A90I, T203A
# chain 2: B1 chain 2
# B9: IL-12p70 H195A (protein)
# chain 1: B1 chain 1 with A90I, H195A
# chain 2: B1 chain 2
# B10: IL-12p70 K59A (protein)
# chain 1: B1 chain 1 with K59A, A90I
# chain 2: B1 chain 2
# B11: IL-12p70 E87A (protein)
# chain 1: B1 chain 1 with E87A, A90I
# chain 2: B1 chain 2
# B12: IL-12p70 K59E (protein)
# chain 1: B1 chain 1 with K59E, A90I
# chain 2: B1 chain 2
# B13: IL-12p70 E87K (protein)
# chain 1: B1 chain 1 with E87K, A90I
# chain 2: B1 chain 2
# B14: IL-12p70 Q43A (protein)
# chain 1: B1 chain 1 with Q43A, A90I
# chain 2: B1 chain 2
# B15: IL-12p70 N201A (protein)
# chain 1: B1 chain 1 with A90I, N201A
# chain 2: B1 chain 2
# B16: IL-12p70 E46K (protein)
# chain 1: B1 chain 1 with E46K, A90I
# chain 2: B1 chain 2
# B17: IL-12p70 H195E (protein)
# chain 1: B1 chain 1 with A90I, H195E
# chain 2: B1 chain 2
# B18: IL-12p70 D162A (protein)
# chain 1: B1 chain 1 with A90I, D162A
# chain 2: B1 chain 2
# B19: IL-12p70 E46A (protein)
# chain 1: B1 chain 1 with E46A, A90I
# chain 2: B1 chain 2
# B20: IL-12p70 D88A (protein)
# chain 1: B1 chain 1 with D88A, A90I
# chain 2: B1 chain 2
# B21: IL-12p70 N104A (protein)
# chain 1: B1 chain 1 with A90I, N104A
# chain 2: B1 chain 2
# B22: IL-12p70 K103A (protein)
# chain 1: B1 chain 1 with A90I, K103A
# chain 2: B1 chain 2
# B23: IL-12p70 W91A (protein)
# chain 1: B1 chain 1 with A90I, W91A
# chain 2: B1 chain 2
# B24: IL-12p70 E87K,K196E (protein)
# chain 1: B1 chain 1 with E87K, A90I, K196E
# chain 2: B1 chain 2
# B25: IL-12p70 K103E (protein)
# chain 1: B1 chain 1 with A90I, K103E
# chain 2: B1 chain 2
# B26: IL-12p70 D42A (protein)
# chain 1: B1 chain 1 with D42A, A90I
# chain 2: B1 chain 2
# B27: IL-12p70 K196A (protein)
# chain 1: B1 chain 1 with A90I, K196A
# chain 2: B1 chain 2
# B28: IL-12p70 Y17A (protein)
# chain 1: B1 chain 1 with Y17A, A90I
# chain 2: B1 chain 2
# B29: IL-12p70 K105A (protein)
# chain 1: B1 chain 1 with A90I, K105A
# chain 2: B1 chain 2
# B30: IL-12p70 D88K (protein)
# chain 1: B1 chain 1 with D88K, A90I
# chain 2: B1 chain 2
# B31: IL-12p70 I278Y (protein)
# chain 1: B1 chain 1 with A90I, I278Y
# chain 2: B1 chain 2
# B32: IL-12p70 W16A D94K K196E L197A (protein)
# chain 1: B1 chain 1 with W16A, A90I, D94K, K196E, L197A
# chain 2: B1 chain 2
# B33: IL-12p70 W16A D94K K196E K265Y (protein)
# chain 1: B1 chain 1 with W16A, A90I, D94K, K196E, K265Y
# chain 2: B1 chain 2
# B34: IL-12p70 W16A K196E (protein)
# chain 1: B1 chain 1 with W16A, A90I, K196E
# chain 2: B1 chain 2
# B35: IL-12p70 W16A D94K K196E (protein)
# chain 1: B1 chain 1 with W16A, A90I, D94K, K196E
# chain 2: B1 chain 2
# B36: IL-12p70 W16A D94K (protein)
# chain 1: B1 chain 1 with W16A, A90I, D94K
# chain 2: B1 chain 2
# B37: IL-12p70 D94K K196E (protein)
# chain 1: B1 chain 1 with A90I, D94K, K196E
# chain 2: B1 chain 2
# B38: IL-12p70 W16A D94K K196E K259Y (protein)
# chain 1: B1 chain 1 with W16A, A90I, D94K, K196E, K259Y
# chain 2: B1 chain 2
# Biological target: IL-12RB1-hFc (human, UniProt P42701)
# Experiment: SPR, 25C
row,Kd [nM],Binder
1,0.06,B1
2,0.04,B2
3,0.07,B3
4,0.69,B4
5,0.03,B5
6,0.05,B6
7,0.06,B7
8,0.04,B8
9,0.13,B9
10,0.07,B10
11,0.04,B11
12,0.07,B12
13,0.11,B13
14,0.03,B14
15,0.04,B15
16,0.04,B16

row,Kd [nM],Binder
1,0.06,B17
2,0.05,B18
3,0.06,B19
4,0.03,B20
5,0.05,B21
6,0.04,B22
7,0.07,B23
8,0.24,B24
9,0.11,B25
10,0.07,B26
11,0.04,B27
12,0.07,B28
13,0.06,B29
14,0.02,B30
15,0.04,B31

# Biological target: T1, IL-12RB2-hFc
# Experiment: SPR, 25C
row,Kd [nM],Binder
1,3,B32
2,4.6,B33
3,2.8,B34
4,2.3,B35
5,2.4,B36
6,2.3,B37
7,1.9,B38

# Biological target: T1, IL-12RB2-hFc
# Experiment: SPR, 25C
# Remark: another data set of the same source
row,Kd [nM],Binder
1,0.35,B1
2,0.43,B4
3,0.45,B5
4,0.5,B8
5,0.54,B9
6,2.1,B10
7,0.49,B12
8,0.5,B15
9,0.52,B16
10,0.38,B20
11,0.39,B21
12,0.33,B22
13,0.53,B23
14,0.49,B24
15,0.34,B25
16,0.58,B27
17,0.34,B29
18,0.31,B30
